Laboratory results reported in publication PMC3419070, “Identification of novel mitosis regulators through data mining with human centromere/kinetochore proteins as group queries” (BMC Cell Biology, 2012).

Target: T1, purified recombinant 6×His-TRIP13 (human, UniProt Q15645 1-432)
T1 construct: TRIP13, human AAA-ATPase; full-length cDNA cloned by the Gateway system; The host is probably E. coli: the methods name destination vectors for E. coli or mammalian cells; also called His-tagged TRIP13
T1 sequence (looked up): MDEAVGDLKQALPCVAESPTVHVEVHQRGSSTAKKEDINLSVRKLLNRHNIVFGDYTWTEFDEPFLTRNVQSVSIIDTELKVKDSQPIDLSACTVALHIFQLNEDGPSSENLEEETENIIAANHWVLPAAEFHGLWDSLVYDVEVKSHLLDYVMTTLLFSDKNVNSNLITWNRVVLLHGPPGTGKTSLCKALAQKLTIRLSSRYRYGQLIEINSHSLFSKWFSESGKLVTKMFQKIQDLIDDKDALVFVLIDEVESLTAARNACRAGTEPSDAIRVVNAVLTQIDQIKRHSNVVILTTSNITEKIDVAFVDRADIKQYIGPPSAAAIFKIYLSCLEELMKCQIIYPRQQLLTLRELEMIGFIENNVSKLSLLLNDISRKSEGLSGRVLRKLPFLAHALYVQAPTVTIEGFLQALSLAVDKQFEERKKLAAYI
Test: pull-down; in vitro binding of recombinant proteins: His-TRIP13 at 100 nM, GST-p31^comet at increasing concentrations; Probond nickel beads, washed; blots with anti-6×His and anti-GST antibodies
Conditions: both partners purified

binding result: binds
B1: purified recombinant GST-p31^comet (natural protein, human, UniProt Q15013 1-274, looked up)
chain: MAAPEAEVLSSAAVPDLEWYEKSEETHASQIELLETSSTQEPLNASEAFCPRDCMVPVVFPGPVSQEGCCQFTCELLKHIMYQRQQLPLPYEQLKHFYRKPSPQAEEMLKKKPRATTEVSSRKCQQALAELESVLSHLEDFFARTLVPRVLILLGGNALSPKEFYELDLSLLAPYSVDQSLSTAACLRRLFRAIFMADAFSELQAPPLMGTVVMAQGHRNCGEDWFRPKLNYRVPSRGHKLTVTLSCGRPSIRTTAWEDYIWFQAPVTFKGFRE
notes: p31^comet (MAD2L1BP), human mitotic checkpoint silencing protein; full-length cDNA cloned by the Gateway system; The host is probably E. coli: the methods name destination vectors for E. coli or mammalian cells; also called MAD2L1BP
